# Source: the supplement of paper PMC10126150
# ± gives the standard deviation of the averaged measurements.
# Tested on: ATP
# Assay: switch fluorescence ratio, 500 uM ATP over buffer (Cy3 cluster intensity, sum of 5 cycles each) (fold (ratio)); higher = stronger signal-on switching upon ATP binding; sequences stand for … in TCGTCGGCAGCGTCAGATGTGTATAAGAGACAGTTTTTTTTTTTTTTTTTTTTTTTTT…TC
# Settings: aptamer strand: ATP DNA aptamer (quencher-CACCTGGGGGAGTATTGCGGAGGAAGG + anchor), 100 nM annealed; ATP concentration: 500 uM
# Outline: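 After annealing to 100 nM quencher-labelled ATP aptamer, Cy3-labelled switching-strand clusters on a modified Illumina MiSeq flow-cell were imaged in selection buffer. A second image followed after 15 min with 500 uM ATP at 22 °C, and five such buffer/ATP cycles were done, each separated by NaOH stripping and re-annealing. The fluorescence ratio, averaged per switch-domain sequence, is summed target-cycle over summed buffer-cycle Cy3 intensity per cluster, with clusters outside 100-1000 RFU excluded.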
# 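Note: ATP exposure 15 min at 22 °C before imaging.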
row,Sequence,switch fluorescence ratio
1,TATTTGCACG,1.07 ± 0.062
2,TATTTGCATC,1.01 ± 0.018
3,TATTTGGATC,0.991 ± 0.035
4,TATTTGGATG,1.03 ± 0.069
5,TATTTGGCTT,1 ± 0.025
6,TATTTGGGGC,1.01 ± 0.058
7,TATTTGGTAT,0.9862 ± 0.0075
8,TATTTGTCCA,0.981 ± 0.047
9,TATTTGTTTT,0.998 ± 0.039
10,TATTTTAATC,1.04 ± 0.059
11,TATTTTACGC,1.01 ± 0.024
12,TATTTTATAT,0.943 ± 0.021
13,TATTTTATGT,1.021 ± 0.0042
14,TATTTTGAAC,1.0289 ± 4.6e-05
15,TATTTTGAGA,0.997 ± 0.012
16,TATTTTGTAG,0.995 ± 0.019
17,TATTTTTACA,1.012 ± 0.0086
18,TATTTTTGCG,0.97 ± 0.05
19,TATTTTTTGT,1.01 ± 0.021
20,TATTTTTTTG,1.01 ± 0.018
21,TCAAAAGGTG,1.33 ± 0.22
22,TCAAAATATA,0.987 ± 0.061
23,TCAAAATGCA,0.9976 ± 0.0092
24,TCAAAGGGCC,1.004 ± 0.0073
25,TCAAAGGGGG,0.951 ± 0.023

row,Sequence,switch fluorescence ratio
1,TCAAAGGGGT,1.052 ± 0.0047
2,TCAAAGTACC,1.16 ± 0.073
3,TCAAATAGCG,1.031 ± 0.0032
4,TCAAATAGGA,1.01 ± 0.012
5,TCAAATATTT,0.979 ± 0.0025
6,TCAAATTTTA,1.02 ± 0.031
7,TCAACGAATG,0.994 ± 0.08
8,TCAACGGGAA,1.01 ± 0.014
9,TCAACGGTAT,1.06 ± 0.029
10,TCAACTATAG,0.999 ± 0.01
11,TCAAGAAATC,0.983 ± 0.091
12,TCAAGAATGG,1 ± 0.059
13,TCAAGACCTT,1.19 ± 0.014
14,TCAAGATAGG,1.014 ± 0.0028
15,TCAAGCCATC,1.063 ± 0.0037
16,TCAAGCGAAC,1.48 ± 0.061
17,TCAAGGATGT,1 ± 0.032
18,TCAAGGGAAC,0.9826 ± 0.004
19,TCAAGGGATC,0.991 ± 0.073
20,TCAAGGGCAG,1.0257 ± 0.00011
21,TCAAGGGCGG,0.988 ± 0.044
22,TCAAGGGGGT,1.04 ± 0.097
23,TCAAGGGGTG,1.034 ± 0.0082
24,TCAAGGTGTT,1.15 ± 0.062
25,TCAATAGATG,0.998 ± 0.032

row,Sequence,switch fluorescence ratio
1,TCAATCATTT,0.997 ± 0.053
2,TCAATGAAGC,0.988 ± 0.012
3,TCAATGAGGG,1.01 ± 0.03
4,TCAATGCGAT,1.33 ± 0.19
5,TCAATGGGGG,0.985 ± 0.062
6,TCAATTATTT,1 ± 0.023
7,TCAATTGAGA,1.02 ± 0.01
8,TCAATTTAGA,1.03 ± 0.038
9,TCACAATGCT,1.55 ± 0.016
10,TCACAATTTA,0.9774 ± 0.0044
11,TCACACAGGC,1.08 ± 0.16
12,TCACACGGAG,1.043 ± 0.0056
13,TCACACGGGG,1.03 ± 0.061
14,TCACAGTTGC,0.99 ± 0.12
15,TCACATTAAC,1.04 ± 0.066
16,TCACATTTTC,1.09 ± 0.14
17,TCACCGCACG,2.2 ± 0.36
18,TCACGCTGTG,1.01 ± 0.036
19,TCACGGGGGA,1.03 ± 0.039
20,TCACGGGTGC,1.91 ± 0.19
21,TCACGGTTGC,1.04 ± 0.016
22,TCACTAGAGT,0.9722 ± 0.0053
23,TCACTATATT,1.08 ± 0.045
24,TCACTCATAT,1.02 ± 0.013
25,TCACTTTGTG,1.01 ± 0.043

row,Sequence,switch fluorescence ratio
1,TCAGACTACT,1.02 ± 0.021
2,TCAGAGCATC,1.96 ± 1.1
3,TCAGAGGAAT,1.01 ± 0.0089
4,TCAGAGGCGG,1 ± 0.011
5,TCAGATTAGC,0.998 ± 0.018
6,TCAGCAAAGT,1.08 ± 0.019
7,TCAGCAAATT,1.09 ± 0.041
8,TCAGCAATCG,2.57 ± 0.026
9,TCAGCATGCG,0.933 ± 0.025
10,TCAGCCCCAT,1.033 ± 0.0072
11,TCAGCGTTTC,1.05 ± 0.027
12,TCAGGACGGA,1.018 ± 0.0015
13,TCAGGAGTCT,0.977 ± 0.062
14,TCAGGATGGC,1.13 ± 0.092
15,TCAGGATTTC,1 ± 0.036
16,TCAGGCATTG,0.979 ± 0.018
17,TCAGGCGTGA,0.987 ± 0.035
18,TCAGGGACAA,1.01 ± 0.013
19,TCAGGGACGG,0.982 ± 0.025
20,TCAGGGATTG,0.977 ± 0.017
21,TCAGGGCGAA,0.995 ± 0.016
22,TCAGGGCGCA,1.03 ± 0.079
23,TCAGGGCTAG,0.9837 ± 0.0093
24,TCAGGGGACG,1 ± 0.025
25,TCAGGGGATG,0.99 ± 0.026
